B1: PRPH (parent)
chain: DEIEFLKKLHEEELRDLQVSVESQ
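Note: lentivirally expressed fusions sorted by FACS into six bins by GFP to DsRed ratio, PSI derived from sequencing read proportions per bin multiplied by bin number.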

This data set covers variants of B1. The data set can be described thus: protein stability index of a GFP-peptide fusion (GPS, HEK-293T) (PSI 1-6); higher = more stable. The note with it: c terminus: a fixed tail appended.
Regarding DEIPFLKKLHEEELRDLQVSVESQ [E4P], the protein stability index was determined as 4.62.
For the variant DEIHFLKKLHEEELRDLQVSVESQ [E4H], the protein stability index was 4.55.
The value for DEIVFLKKLHEEELRDLQVSVESQ [E4V] was 4.21.
The value for DEIKFLKKLHEEELRDLQVSVESQ [E4K] was 4.18.
With DEIWFLKKLHEEELRDLQVSVESQ [E4W], the protein stability index was determined as 3.18.
With DEISFLKKLHEEELRDLQVSVESQ [E4S] the figure was 4.93.
With DEINFLKKLHEEELRDLQVSVESQ [E4N] the figure was 4.91; with DEIDFLKKLHEEELRDLQVSVESQ [E4D], 4.93.
Regarding DEIQFLKKLHEEELRDLQVSVESQ [E4Q], the protein stability index came out at 4.34.
The value for DEIFFLKKLHEEELRDLQVSVESQ [E4F] was 3.96.
With DEIYFLKKLHEEELRDLQVSVESQ [E4Y] the figure was 3.9; with DEILFLKKLHEEELRDLQVSVESQ [E4L], 4.15; with DEIAFLKKLHEEELRDLQVSVESQ [E4A], 4.36.
The value for DEIIFLKKLHEEELRDLQVSVESQ [E4I] was 4.12; that for DEICFLKKLHEEELRDLQVSVESQ [E4C] was 3.93; that for DEIGFLKKLHEEELRDLQVSVESQ [E4G] was 4.57.
Consider DEIRFLKKLHEEELRDLQVSVESQ [E4R], for which the protein stability index is 3.98.
The value for DEITFLKKLHEEELRDLQVSVESQ [E4T] was 4.16; that for DEIMFLKKLHEEELRDLQVSVESQ [E4M] was 4.53; that for YEIEFLKKLHEEELRDLQVSVESQ [D1Y] was 4.32.
With SEIEFLKKLHEEELRDLQVSVESQ [D1S] the figure was 4.64; with WEIEFLKKLHEEELRDLQVSVESQ [D1W], 3.97.
The value for VEIEFLKKLHEEELRDLQVSVESQ [D1V] was 4.31; that for TEIEFLKKLHEEELRDLQVSVESQ [D1T] was 4.71; that for DEIEFLKKWHEEELRDLQVSVESQ [L9W] was 4.38.
With DEIEFLKKSHEEELRDLQVSVESQ [L9S], the protein stability index worked out at 5.4.
With DEIEFLKKDHEEELRDLQVSVESQ [L9D] the figure was 5.27; with DEIEFLKKAHEEELRDLQVSVESQ [L9A], 5.02.
With DEIEFLKKGHEEELRDLQVSVESQ [L9G] the figure was 5.58.
The value for DEIEFLKKFHEEELRDLQVSVESQ [L9F] was 4.65; that for DEIEFLKKVHEEELRDLQVSVESQ [L9V] was 5.01.
On to DEIEFLKKKHEEELRDLQVSVESQ [L9K], for which the protein stability index was found to be 5.49.
Take DEIEFLKKMHEEELRDLQVSVESQ [L9M]: the protein stability index amounted to 4.82.
With DEIEFLKKTHEEELRDLQVSVESQ [L9T] the figure was 5.3; with DEIEFLKKCHEEELRDLQVSVESQ [L9C], 4.9; with DEIEFLKKEHEEELRDLQVSVESQ [L9E], 5.05.
The value for DEIEFLKKPHEEELRDLQVSVESQ [L9P] was 5.52; that for DEIEFLKKQHEEELRDLQVSVESQ [L9Q] was 4.98.
For DEIEFLKKRHEEELRDLQVSVESQ [L9R], the protein stability index worked out at 5.29.
With DEIEFLKKNHEEELRDLQVSVESQ [L9N] the figure was 5.34; with DEIEFLKKYHEEELRDLQVSVESQ [L9Y], 4.44.
Take DEIEFLKKHHEEELRDLQVSVESQ [L9H]: the protein stability index turned out to be 5.29.
The value for DEIEFLKKIHEEELRDLQVSVESQ [L9I] was 4.88.
In the case of DEAEFLKKLHEEELRDLQVSVESQ [I3A], the protein stability index is 5.36.
With DEKEFLKKLHEEELRDLQVSVESQ [I3K] the figure was 5.18; with DEFEFLKKLHEEELRDLQVSVESQ [I3F], 4.88; with DEHEFLKKLHEEELRDLQVSVESQ [I3H], 5.24.
With DESEFLKKLHEEELRDLQVSVESQ [I3S] the figure was 5.42; with DEMEFLKKLHEEELRDLQVSVESQ [I3M], 4.96.
With DEDEFLKKLHEEELRDLQVSVESQ [I3D] the figure was 5.68; with DELEFLKKLHEEELRDLQVSVESQ [I3L], 4.84; with DEVEFLKKLHEEELRDLQVSVESQ [I3V], 4.83.
DECEFLKKLHEEELRDLQVSVESQ [I3C]: the protein stability index was found to be 5.09.
The value for DEWEFLKKLHEEELRDLQVSVESQ [I3W] was 4.41.
The value for DETEFLKKLHEEELRDLQVSVESQ [I3T] was 5.25; that for DEYEFLKKLHEEELRDLQVSVESQ [I3Y] was 4.8.
Regarding DEGEFLKKLHEEELRDLQVSVESQ [I3G], the protein stability index is 5.05.
Turning to DENEFLKKLHEEELRDLQVSVESQ [I3N], the protein stability index was found to be 5.46.
On to DEREFLKKLHEEELRDLQVSVESQ [I3R], for which the protein stability index turned out to be 5.28.
Take DEQEFLKKLHEEELRDLQVSVESQ [I3Q]: the protein stability index was 5.08.
For the variant DEPEFLKKLHEEELRDLQVSVESQ [I3P], the protein stability index was found to be 4.94.
The value for DEEEFLKKLHEEELRDLQVSVESQ [I3E] was 5.43; that for DVIEFLKKLHEEELRDLQVSVESQ [E2V] was 2; that for DDIEFLKKLHEEELRDLQVSVESQ [E2D] was 5.01.
With DCIEFLKKLHEEELRDLQVSVESQ [E2C] the figure was 2.04; with DMIEFLKKLHEEELRDLQVSVESQ [E2M], 2.05.
With DKIEFLKKLHEEELRDLQVSVESQ [E2K] the figure was 3.94; with DNIEFLKKLHEEELRDLQVSVESQ [E2N], 4.67.
On to DPIEFLKKLHEEELRDLQVSVESQ [E2P], for which the protein stability index was 4.13.
The value for DSIEFLKKLHEEELRDLQVSVESQ [E2S] was 3.65; that for DYIEFLKKLHEEELRDLQVSVESQ [E2Y] was 1.91.
With DRIEFLKKLHEEELRDLQVSVESQ [E2R] the figure was 4.39; with DAIEFLKKLHEEELRDLQVSVESQ [E2A], 2.22; with DFIEFLKKLHEEELRDLQVSVESQ [E2F], 2.13.
The value for DWIEFLKKLHEEELRDLQVSVESQ [E2W] was 1.69; that for DIIEFLKKLHEEELRDLQVSVESQ [E2I] was 2.1.
For the variant DHIEFLKKLHEEELRDLQVSVESQ [E2H], the protein stability index amounted to 4.08.
With DTIEFLKKLHEEELRDLQVSVESQ [E2T] the figure was 2.98; with DQIEFLKKLHEEELRDLQVSVESQ [E2Q], 3.73.
With DGIEFLKKLHEEELRDLQVSVESQ [E2G] the figure was 3.56; with DEIEFLKKLWEEELRDLQVSVESQ [H10W], 3.54.
With DEIEFLKKLYEEELRDLQVSVESQ [H10Y] the figure was 4.18; with DEIEFLKKLMEEELRDLQVSVESQ [H10M], 3.88.
DEIEFLKKLAEEELRDLQVSVESQ [H10A]: the protein stability index worked out at 4.42.
The value for DEIEFLKKLDEEELRDLQVSVESQ [H10D] was 5.25; that for DEIEFLKKLFEEELRDLQVSVESQ [H10F] was 3.47; that for DEIEFLKKLEEEELRDLQVSVESQ [H10E] was 5.23.
For DEIEFLKKLTEEELRDLQVSVESQ [H10T], the protein stability index is 4.95.
The value for DEIEFLKKLVEEELRDLQVSVESQ [H10V] was 3.52; that for DEIEFLKKLSEEELRDLQVSVESQ [H10S] was 5.18.
With DEIEFLKKLPEEELRDLQVSVESQ [H10P] the figure was 5.1; with DEIEFLKKLKEEELRDLQVSVESQ [H10K], 4.78.
With DEIEFLKKLLEEELRDLQVSVESQ [H10L] the figure was 2.52; with DEIEFLKKLGEEELRDLQVSVESQ [H10G], 4.64.

The values are drawn from the supplement of paper PMC10567573.
